Reference: PMC13215203
Changes are numbered by the printed parent chain. Numbers in names are those of the source.

B1: untagged SPD-5 amino acids 135-473, phosphorylated by PLK1, P91349 S170A; T178A; T198A (protein)
chain: MQSRIETSEDNFARQMKEFEAQKHAMEERIKELELAATDANNTAVGSFRGTLDDILKKNDPDFALTSGYEERKINDLEAKLLSEIDKVAELEDHIQQLRQELDDQSARLADSENVRAQLEAATGQGILGAAGNAMVPNSTFMIGNGRESQTRDQLNYIDDLETKLADAKKENDKARQALVEYMNKCSKLEHEIRTMVKNSTFDSSSMLLGGQTSDELKIQIGKVNGELNVLRAENRELRIRCDQLTGGDGNLSISLGQSRLMAGIATNDVDSIGQGNETGGTSMRILPRESQLDDLEESKLPLMDTSSAVRNQQQFASMWEDFESVKDSLQNNHNDTLE
B2: untagged SPD-5 amino acids 135-473, phosphorylated by PLK1, P91349 T274A; T335A; S339A; S340A (protein)
chain: B1 chain with A36S, A44T, A64T, T140A, T201A, S205A, S206A
B3: untagged SPD-5 amino acids 135-473, phosphorylated by PLK1, P91349 S170A; T178A; T198A; T274A; T335A; S339A; S340A (protein)
chain: B1 chain with T140A, T201A, S205A, S206A
B4: untagged SPD-5 amino acids 135-473, not phosphorylated, P91349 T274A; T335A; S339A; S340A (protein)
chain: B1 chain with A36S, A44T, A64T, T140A, T201A, S205A, S206A
B5: untagged SPD-5 amino acids 135-473, not phosphorylated, P91349 S170A; T178A; T198A (protein)
chain: B1 chain
B6: untagged SPD-5 amino acids 135-473, not phosphorylated, P91349 S170A; T178A; T198A; T274A; T335A; S339A; S340A (protein)
chain: B1 chain with T140A, T201A, S205A, S206A

Each binder was assayed against reconstituted C. elegans γ-tubulin complex (γTuC): γ-tubulin^TBG-1, GCP2^GIP-2-5Myc, GCP3^GIP-1 and MZT-1, P34475;G5EF84 (assay: γTuC pull-down (γTuC-coated Myc beads), anti-SPD-5 immunoblot band intensity). Conditions: chain shown with the change; +PLK1 preincubation (500 nM PLK1(T194D), 2.0 μM fragment, 1 hour at 23°C); binding 2 hours at 4°C, SPD-5 fragment 75 nM; scale: band intensity relative to SPD-5 135-473 without PLK1.
Target sequence (chain, as listed by the source, chain 1 of 4): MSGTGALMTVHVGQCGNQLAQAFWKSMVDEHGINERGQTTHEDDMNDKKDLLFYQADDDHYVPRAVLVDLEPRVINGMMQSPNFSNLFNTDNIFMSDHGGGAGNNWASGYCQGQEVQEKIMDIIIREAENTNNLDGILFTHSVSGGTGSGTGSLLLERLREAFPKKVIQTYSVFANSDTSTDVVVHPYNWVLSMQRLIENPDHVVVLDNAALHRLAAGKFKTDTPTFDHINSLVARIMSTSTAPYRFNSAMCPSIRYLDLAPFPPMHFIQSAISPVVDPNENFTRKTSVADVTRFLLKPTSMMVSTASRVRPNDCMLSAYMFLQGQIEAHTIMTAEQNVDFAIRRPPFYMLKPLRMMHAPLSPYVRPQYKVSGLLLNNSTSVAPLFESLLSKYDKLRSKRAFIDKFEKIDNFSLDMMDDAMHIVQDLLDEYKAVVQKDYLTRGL
Target sequence (chain, as listed by the source, chain 2 of 4): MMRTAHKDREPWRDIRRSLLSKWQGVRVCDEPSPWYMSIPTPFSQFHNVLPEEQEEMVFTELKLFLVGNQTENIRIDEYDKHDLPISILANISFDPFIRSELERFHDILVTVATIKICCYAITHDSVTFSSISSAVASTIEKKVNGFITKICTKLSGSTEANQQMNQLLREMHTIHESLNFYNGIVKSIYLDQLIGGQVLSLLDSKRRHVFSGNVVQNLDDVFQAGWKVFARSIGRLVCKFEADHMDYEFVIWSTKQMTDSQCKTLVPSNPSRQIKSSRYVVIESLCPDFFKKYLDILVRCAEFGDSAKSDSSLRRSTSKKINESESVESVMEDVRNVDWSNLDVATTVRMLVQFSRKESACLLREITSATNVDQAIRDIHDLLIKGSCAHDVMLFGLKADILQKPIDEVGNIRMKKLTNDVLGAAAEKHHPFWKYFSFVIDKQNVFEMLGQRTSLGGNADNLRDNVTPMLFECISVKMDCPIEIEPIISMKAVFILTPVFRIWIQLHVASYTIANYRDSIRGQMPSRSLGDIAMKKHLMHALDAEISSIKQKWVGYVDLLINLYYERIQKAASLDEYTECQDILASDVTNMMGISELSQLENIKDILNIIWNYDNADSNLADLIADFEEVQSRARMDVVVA
Target sequence (chain, as listed by the source, chain 3 of 4): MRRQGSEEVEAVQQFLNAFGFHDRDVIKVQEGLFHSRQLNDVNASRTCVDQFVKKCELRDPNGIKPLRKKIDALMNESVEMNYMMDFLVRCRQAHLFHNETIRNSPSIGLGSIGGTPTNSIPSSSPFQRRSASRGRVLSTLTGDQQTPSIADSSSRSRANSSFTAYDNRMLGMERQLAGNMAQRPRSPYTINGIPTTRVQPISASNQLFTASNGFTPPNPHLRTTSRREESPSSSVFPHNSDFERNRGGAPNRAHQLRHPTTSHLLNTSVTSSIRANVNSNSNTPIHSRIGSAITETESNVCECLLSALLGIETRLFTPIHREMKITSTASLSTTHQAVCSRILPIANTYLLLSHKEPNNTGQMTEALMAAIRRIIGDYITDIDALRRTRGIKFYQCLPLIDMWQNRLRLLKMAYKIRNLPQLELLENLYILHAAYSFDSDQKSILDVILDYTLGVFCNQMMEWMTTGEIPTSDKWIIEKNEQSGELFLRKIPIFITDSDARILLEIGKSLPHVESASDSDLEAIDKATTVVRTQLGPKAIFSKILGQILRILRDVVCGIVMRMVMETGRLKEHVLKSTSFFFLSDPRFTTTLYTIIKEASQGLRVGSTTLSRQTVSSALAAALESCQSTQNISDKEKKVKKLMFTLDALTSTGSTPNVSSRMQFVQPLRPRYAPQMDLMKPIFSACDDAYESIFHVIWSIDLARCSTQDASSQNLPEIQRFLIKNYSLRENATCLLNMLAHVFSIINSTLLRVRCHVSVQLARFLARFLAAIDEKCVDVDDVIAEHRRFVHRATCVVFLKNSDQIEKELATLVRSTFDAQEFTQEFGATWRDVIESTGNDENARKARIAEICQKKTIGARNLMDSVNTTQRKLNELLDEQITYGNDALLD
Target sequence (chain, as listed by the source, chain 4 of 4): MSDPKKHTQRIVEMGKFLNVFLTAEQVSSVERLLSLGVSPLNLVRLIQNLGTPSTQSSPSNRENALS

response | Binder
0.1 | B1
2.8 | B2
0 | B3

Same assay, conditions: chain shown with the change; no PLK1; binding 2 hours at 4°C, SPD-5 fragment 75 nM; scale: band intensity relative to SPD-5 135-473 without PLK1

response | Binder
0.1 | B4
0.7 | B5
0.1 | B6
